Experimental data as given in article PMC5302901.

Molecular target: Grb2 (UniProt Q07883)
Test: IP of Grb2, blot for CD22
Details: reference: CD22-WT; sites Y773,Y783,Y828,Y843,Y863

binding against the reference: lost
Substance: CD22 (from UniProt P35329) F1/2/4/5/6
